# Results published in patent publication US11345725B2, “Bis-thioether stapled peptides as inhibitors of PRC2 function” (Research Foundation of the City University of New York, priority 2019, dated 2022).
# Starred links: 1 amine or outer side, 2 acyl side, 3 side chain; linkers in the order of their positions; H or OH if unused. Positions of bridges follow the written chain, without caps; N, C: chain ends. Residues, ends and D or L forms follow the SMILES beside them. X5 = C(CCC[*:1])CCC[*:2]; X6 = C(=C\C[*:2])/C[*:1]; X4 = C(CCC[*:2])CC[*:1]; X2 = C(CC[*:1])CC[*:2]; X3 = C(CC[*:2])C[*:1]; X1 = C(C[*:1])C[*:2]
# Test: circular dichroism
# Settings: deionized water; pH unbuffered; 20 °C; 25 uM
row,Compound,helicity
1,CC[C@H](C)[C@H](NC(=O)[C@@H]1CSCCCSC[C@H](NC(=O)[C@@H](NC(=O)[C@@H](NC(C)=O)C(C)C)[C@@H](C)CC)C(=O)N[C@@H](CCC(=O)O)C(=O)N[C@@H](CCC(=O)O)C(=O)N[C@@H](Cc2ccc(O)cc2)C(=O)N1)C(=O)N[C@@H](Cc1c[nH]c2ccccc12)C(=O)N[C@@H](CCCCN)C(=O)N[C@@H](CCCCN)C(=O)N[C@@H](CC(N)=O)C(=O)N[C@H](C(=O)N1CCC[C@H]1C(=O)N[C@@H](Cc1ccccc1)C(=O)N[C@@H](CC(C)C)C(N)=O)[C@@H](C)O (Ac-VICEEYCIWKKNTPFL-NH2; linker 3-7 via X1),12.7%
2,CC[C@H](C)[C@@H]1NC(=O)[C@@H](NC(=O)[C@H](Cc2ccc(O)cc2)NC(=O)[C@H](CCC(=O)O)NC(=O)[C@H](CCC(=O)O)NC(=O)[C@H](CC(N)=O)NC(=O)[C@@H](NC(=O)[C@@H](NC(C)=O)C(C)C)[C@@H](C)CC)CSC/C=C/CSC[C@@H](C(=O)N[C@@H](CC(N)=O)C(=O)N[C@H](C(=O)N2CCC[C@H]2C(=O)N[C@@H](Cc2ccccc2)C(=O)N[C@@H](CC(C)C)C(N)=O)[C@@H](C)O)NC(=O)[C@H](CCCCN)NC(=O)[C@H](Cc2c[nH]c3ccccc23)NC1=O (Ac-VINEEYCIWKCNTPFL-NH2; linker 7-11 via X6),24.2%
3,CC[C@H](C)[C@H](NC(=O)[C@H](CCCCN)NC(=O)[C@H](CC(=O)O)NC(=O)[C@@H](NC(=O)[C@@H](NC(C)=O)[C@@H](C)O)C(C)C)C(=O)N[C@@H](C)C(=O)N[C@@H](CO)C(=O)N[C@@H](C)C(=O)N[C@H]1CSCCCCCCCSC[C@@H](C(=O)N2CCC[C@H]2C(=O)N[C@@H](CCC(N)=O)C(=O)N[C@@H](CC(N)=O)C(N)=O)NC(=O)[C@H](CCC(=O)O)NC(=O)[C@H](CCC(=O)O)NC(=O)[C@H](C)NC(=O)[C@H](CC(C)C)NC(=O)[C@H](C(C)C)NC(=O)[C@H](CO)NC1=O (Ac-TVDKIASACSVLAEECPQN-NH2; linker 9-16 via X5),13.7%
4,CC[C@H](C)[C@@H]1NC(=O)[C@@H](NC(=O)[C@H](Cc2ccc(O)cc2)NC(=O)[C@H](CCC(=O)O)NC(=O)[C@H](CCC(=O)O)NC(=O)[C@H](CC(N)=O)NC(=O)[C@@H](NC(=O)[C@@H](NC(C)=O)C(C)C)[C@@H](C)CC)CSCCCCSC[C@@H](C(=O)N[C@@H](CC(N)=O)C(=O)N[C@H](C(=O)N2CCC[C@H]2C(=O)N[C@@H](Cc2ccccc2)C(=O)N[C@@H](CC(C)C)C(N)=O)[C@@H](C)O)NC(=O)[C@H](CCCCN)NC(=O)[C@H](Cc2c[nH]c3ccccc23)NC1=O (Ac-VINEEYCIWKCNTPFL-NH2; linker 7-11 via X3),16.5%
5,CC[C@H](C)[C@H](NC(=O)[C@H](CCCCN)NC(=O)[C@H](CC(=O)O)NC(=O)[C@@H](NC(=O)[C@@H](NC(C)=O)[C@@H](C)O)C(C)C)C(=O)N[C@@H](C)C(=O)N[C@@H](CO)C(=O)N[C@@H](C)C(=O)N[C@H]1CSCCCCCCSC[C@@H](C(=O)N2CCC[C@H]2C(=O)N[C@@H](CCC(N)=O)C(=O)N[C@@H](CC(N)=O)C(N)=O)NC(=O)[C@H](CCC(=O)O)NC(=O)[C@H](CCC(=O)O)NC(=O)[C@H](C)NC(=O)[C@H](CC(C)C)NC(=O)[C@H](C(C)C)NC(=O)[C@H](CO)NC1=O (Ac-TVDKIASACSVLAEECPQN-NH2; linker 9-16 via X4),8.7%
6,CC[C@H](C)[C@@H]1NC(=O)[C@@H](NC(=O)[C@H](Cc2ccc(O)cc2)NC(=O)[C@H](CCC(=O)O)NC(=O)[C@H](CCC(=O)O)NC(=O)[C@H](CC(N)=O)NC(=O)[C@@H](NC(=O)[C@@H](NC(C)=O)C(C)C)[C@@H](C)CC)CSCCCCCSC[C@@H](C(=O)N[C@@H](CC(N)=O)C(=O)N[C@H](C(=O)N2CCC[C@H]2C(=O)N[C@@H](Cc2ccccc2)C(=O)N[C@@H](CC(C)C)C(N)=O)[C@@H](C)O)NC(=O)[C@H](CCCCN)NC(=O)[C@H](Cc2c[nH]c3ccccc23)NC1=O (Ac-VINEEYCIWKCNTPFL-NH2; linker 7-11 via X2),5.68%
7,CC[C@H](C)[C@@H]1NC(=O)[C@@H](NC(=O)[C@H](CC(=O)O)NC(=O)[C@@H](NC(=O)[C@@H](NC(C)=O)[C@@H](C)O)C(C)C)CSCCCSC[C@@H](C(=O)N[C@@H](CC(C)C)C(=O)N[C@@H](CO)C(=O)N[C@H](C(=O)N[C@@H](CC(C)C)C(=O)N[C@@H](C)C(=O)N[C@@H](CCC(=O)O)C(=O)N[C@@H](CCC(=O)O)C(=O)N[C@H](C(=O)N2CCC[C@H]2C(=O)N[C@@H](CCC(N)=O)C(=O)N[C@@H](CC(N)=O)C(N)=O)C(C)C)C(C)C)NC(=O)[C@H](CO)NC(=O)[C@H](C)NC1=O (Ac-TVDCIASCLSVLAEEVPQN-NH2; linker 4-8 via X1),23%
8,Ac-LCRNFMLHLVSMHDFLI-NH2,59.9%
9,CC[C@H](C)[C@H](NC(=O)[C@H](CC(C)C)NC(=O)[C@H](Cc1ccccc1)NC(=O)[C@H](CC(=O)O)NC(=O)[C@H](Cc1c[nH]cn1)NC(=O)[C@H](CCSC)NC(=O)[C@H](CO)NC(=O)[C@@H](NC(=O)[C@@H]1CSCCCCCSC[C@H](NC(=O)[C@H](CC(N)=O)NC(=O)[C@H](CCCNC(=N)N)NC(=O)[C@H](CS)NC(=O)[C@H](CC(C)C)NC(C)=O)C(=O)N[C@@H](CCSC)C(=O)N[C@@H](CC(C)C)C(=O)N[C@@H](Cc2c[nH]cn2)C(=O)N1)C(C)C)C(N)=O (Ac-LCRNCMLHCVSMHDFLI-NH2; linker 5-9 via X2),61.6%
10,CC[C@H](C)[C@H](NC(=O)[C@@H]1CSCCCCCCSC[C@H](NC(=O)[C@@H](NC(=O)[C@@H](NC(C)=O)C(C)C)[C@@H](C)CC)C(=O)N[C@@H](CCC(=O)O)C(=O)N[C@@H](CCC(=O)O)C(=O)N[C@@H](Cc2ccc(O)cc2)C(=O)N1)C(=O)N[C@@H](Cc1c[nH]c2ccccc12)C(=O)N[C@@H](CCCCN)C(=O)N[C@@H](CCCCN)C(=O)N[C@@H](CC(N)=O)C(=O)N[C@H](C(=O)N1CCC[C@H]1C(=O)N[C@@H](Cc1ccccc1)C(=O)N[C@@H](CC(C)C)C(N)=O)[C@@H](C)O (Ac-VICEEYCIWKKNTPFL-NH2; linker 3-7 via X4),19.4%
11,Ac-EWLREKTITQIEEF-NH2,20.9%
12,CC[C@H](C)[C@H](NC(=O)[C@H](CCC(N)=O)NC(=O)[C@@H](NC(=O)[C@@H]1CSCCCSC[C@H](NC(=O)[C@H](CC(C)C)NC(=O)[C@H](Cc2c[nH]c3ccccc23)NC(=O)[C@H](CCC(=O)O)NC(C)=O)C(=O)N[C@@H](CCC(=O)O)C(=O)N[C@@H](CCCCN)C(=O)N[C@@H]([C@@H](C)O)C(=O)N1)[C@@H](C)O)C(=O)N[C@@H](CCC(=O)O)C(=O)N[C@@H](CCC(=O)O)C(=O)N[C@@H](Cc1ccccc1)C(N)=O (Ac-EWLCEKTCTQIEEF-NH2; linker 4-8 via X1),38.4%
13,CC[C@H](C)[C@@H]1NC(=O)[C@@H](NC(=O)[C@H](Cc2ccc(O)cc2)NC(=O)[C@H](CCC(=O)O)NC(=O)[C@H](CCC(=O)O)NC(=O)[C@H](CC(N)=O)NC(=O)[C@@H](NC(=O)[C@@H](NC(C)=O)C(C)C)[C@@H](C)CC)CSCCCCCCSC[C@@H](C(=O)N[C@@H](CC(N)=O)C(=O)N[C@H](C(=O)N2CCC[C@H]2C(=O)N[C@@H](Cc2ccccc2)C(=O)N[C@@H](CC(C)C)C(N)=O)[C@@H](C)O)NC(=O)[C@H](CCCCN)NC(=O)[C@H](Cc2c[nH]c3ccccc23)NC1=O (Ac-VINEEYCIWKCNTPFL-NH2; linker 7-11 via X4),19.4%
14,CC[C@H](C)[C@@H]1NC(=O)[C@@H](NC(=O)[C@H](CC(=O)O)NC(=O)[C@@H](NC(=O)[C@@H](NC(C)=O)[C@@H](C)O)C(C)C)CSCCCCCSC[C@@H](C(=O)N[C@@H](CC(C)C)C(=O)N[C@@H](CO)C(=O)N[C@H](C(=O)N[C@@H](CC(C)C)C(=O)N[C@@H](C)C(=O)N[C@@H](CCC(=O)O)C(=O)N[C@@H](CCC(=O)O)C(=O)N[C@H](C(=O)N2CCC[C@H]2C(=O)N[C@@H](CCC(N)=O)C(=O)N[C@@H](CC(N)=O)C(N)=O)C(C)C)C(C)C)NC(=O)[C@H](CO)NC(=O)[C@H](C)NC1=O (Ac-TVDCIASCLSVLAEEVPQN-NH2; linker 4-8 via X2),9%
15,CC[C@H](C)[C@H](NC(=O)[C@H](CCC(N)=O)NC(=O)[C@@H](NC(=O)[C@@H]1CSCCCCCSC[C@H](NC(=O)[C@H](CC(C)C)NC(=O)[C@H](Cc2c[nH]c3ccccc23)NC(=O)[C@H](CCC(=O)O)NC(C)=O)C(=O)N[C@@H](CCC(=O)O)C(=O)N[C@@H](CCCCN)C(=O)N[C@@H]([C@@H](C)O)C(=O)N1)[C@@H](C)O)C(=O)N[C@@H](CCC(=O)O)C(=O)N[C@@H](CCC(=O)O)C(=O)N[C@@H](Cc1ccccc1)C(N)=O (Ac-EWLCEKTCTQIEEF-NH2; linker 4-8 via X2),19.7%
16,CC[C@H](C)[C@H](NC(=O)[C@@H]1CSCCCCSC[C@H](NC(=O)[C@@H](NC(=O)[C@@H](NC(C)=O)C(C)C)[C@@H](C)CC)C(=O)N[C@@H](CCC(=O)O)C(=O)N[C@@H](CCC(=O)O)C(=O)N[C@@H](Cc2ccc(O)cc2)C(=O)N1)C(=O)N[C@@H](Cc1c[nH]c2ccccc12)C(=O)N[C@@H](CCCCN)C(=O)N[C@@H](CCCCN)C(=O)N[C@@H](CC(N)=O)C(=O)N[C@H](C(=O)N1CCC[C@H]1C(=O)N[C@@H](Cc1ccccc1)C(=O)N[C@@H](CC(C)C)C(N)=O)[C@@H](C)O (Ac-VICEEYCIWKKNTPFL-NH2; linker 3-7 via X3),11.5%
17,CC[C@H](C)[C@H](NC(=O)[C@@H]1CSCCCCCSC[C@H](NC(=O)[C@@H](NC(=O)[C@@H](NC(C)=O)C(C)C)[C@@H](C)CC)C(=O)N[C@@H](CCC(=O)O)C(=O)N[C@@H](CCC(=O)O)C(=O)N[C@@H](Cc2ccc(O)cc2)C(=O)N1)C(=O)N[C@@H](Cc1c[nH]c2ccccc12)C(=O)N[C@@H](CCCCN)C(=O)N[C@@H](CCCCN)C(=O)N[C@@H](CC(N)=O)C(=O)N[C@H](C(=O)N1CCC[C@H]1C(=O)N[C@@H](Cc1ccccc1)C(=O)N[C@@H](CC(C)C)C(N)=O)[C@@H](C)O (Ac-VICEEYCIWKKNTPFL-NH2; linker 3-7 via X2),11%
18,CC[C@H](C)[C@H](NC(=O)[C@@H]1CSC/C=C/CSC[C@H](NC(=O)[C@@H](NC(=O)[C@@H](NC(C)=O)C(C)C)[C@@H](C)CC)C(=O)N[C@@H](CCC(=O)O)C(=O)N[C@@H](CCC(=O)O)C(=O)N[C@@H](Cc2ccc(O)cc2)C(=O)N1)C(=O)N[C@@H](Cc1c[nH]c2ccccc12)C(=O)N[C@@H](CCCCN)C(=O)N[C@@H](CCCCN)C(=O)N[C@@H](CC(N)=O)C(=O)N[C@H](C(=O)N1CCC[C@H]1C(=O)N[C@@H](Cc1ccccc1)C(=O)N[C@@H](CC(C)C)C(N)=O)[C@@H](C)O (Ac-VICEEYCIWKKNTPFL-NH2; linker 3-7 via X6),19%
